Results: paper PMC5242468

Columns and labels:
[1] = target: β-Glucuronidase (GusA) (E. coli MG1655), P05804; experiment: SEC; gel filtration of the freshly purified enzymes against reference proteins (thyroglobulin, aldolase, albumin, ovalbumin, chymotrypsinogen A); results name a Superose 12 10/300 column, methods name a ZORBAX GF-250 HPLC column, 130 mM NaCl/20 mM Na2HPO4 pH 7.0, 23°C; details: remark: other sources report otherwise
[2] = target: β-Glucuronidase (GusA) (E. coli MG1655), P05804; experiment: SEC; after 65°C and pH 5 for 20 min (high temperature and acidic pH); data not shown; details: remark: other sources report otherwise

stoichiometry N [1]: 4 | stoichiometry N [2]: 4
B1: β-Glucuronidase (GusA), P05804 1-603 (enzyme)
chain: MLRPVETPTREIKKLDGLWAFSLDRENCGIDQRWWESALQESRAIAVPGSFNDQFADADIRNYAGNVWYQREVFIPKGWAGQRIVLRFDAVTHYGKVWVNNQEVMEHQGGYTPFEADVTPYVIAGKSVRITVCVNNELNWQTIPPGMVITDENGKKKQSYFHDFFNYAGIHRSVMLYTTPNTWVDDITVVTHVAQDCNHASVDWQVVANGDVSVELRDADQQVVATGQGTSGTLQVVNPHLWQPGEGYLYELCVTAKSQTECDIYPLRVGIRSVAVKGEQFLINHKPFYFTGFGRHEDADLRGKGFDNVLMVHDHALMDWIGANSYRTSHYPYAEEMLDWADEHGIVVIDETAAVGFNLSLGIGFEAGNKPKELYSEEAVNGETQQAHLQAIKELIARDKNHPSVVMWSIANEPDTRPQGAREYFAPLAEATRKLDPTRPITCVNVMFCDAHTDTISDLFDVLCLNRYYGWYVQSGDLETAEKVLEKELLAWQEKLHQPIIITEYGVDTLAGLHSMYTDMWSEEYQCAWLDMYHRVFDRVSAVVGEQVWNFADFATSQGILRVGGNKKGIFTRDRKPKSAAFLLQKRWTGMNFGEKPQQGGKQ
